Patent US20260258115A1 (MAPP BIOPHARMACEUTICAL, published 2026)

B1: ADI-41805 (antibody, V domains shown)
VH: QVQLVQSGAEVKKPGESLKISCKASGYSFTSYWIAWVRQMPGKGLEWMGIIFPGDSDTRYSPSFQGQVTISADKSISTAYLQWSSLEASDTAMYYCAKSTTYYYYGLDVWGQGTTVTVSS
VL: QPVLTQPASVSGSPGQSITISCTGTSSDVGGYDYVSWYQQYPGKAPKLMIYEVSNRPLGVSNRFSGSRSGYTASLTISGLQAEDETNYYCSSYTSSRTWVFGGGTKLTVL
notes: also called Ab 914; Antibody Number 914
B2: ADI-41562 (antibody, V domains shown)
VH: QVQLVQSGAEVKKPGASVRVSCKTSGYAFSKYGISWVRQAPGQGLEWIGWISAYNENTHFSHKFLGRVTMTTDTSTGIAYMDLRSLKSDDTAVYYCARDWYSLGSDWYFGPMFDYWGQGTLVTVSS
VL: EIVLTQSPDTLSVSPGERATLSCRASQSVTTNLAWYQQKPGHAPRLLIYGASTRATGIPARFSGSGSGTEFTLTISSLQSEDFAIYYCQQYTNWPRTFGQGTKVEIK
notes: also called Ab 842; Antibody Number 842
B3: ADI-41553 (antibody, V domains shown)
VH: EVQLVESETEVKKPGASVKVSCKASGYTFTKYGISWVRQAPGQGLEWMGWISAYNGNTMYPHKLLGRVTMTTDTSTSTAYMELRSLRSDDTAVYYCARDQTYYDFWSGYYTYWGQGTLVTVSS
VL: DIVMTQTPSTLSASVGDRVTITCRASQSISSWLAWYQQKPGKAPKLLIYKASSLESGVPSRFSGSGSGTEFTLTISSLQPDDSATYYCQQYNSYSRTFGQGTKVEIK
notes: also called Ab 835; Antibody Number 835
B4: ADI-41556 (antibody, V domains shown)
VH: EVQLLESGGGLVKPGGSLRLSCAASGFSFSSYSMHWVRQAPGKGLEWVSSISSSSTYIYYADSVKGRFTISRDNAKTSLFLQMNSLRAEDTAVYYCARDPYSSGWYWDWGQGTTVTVSS
VL: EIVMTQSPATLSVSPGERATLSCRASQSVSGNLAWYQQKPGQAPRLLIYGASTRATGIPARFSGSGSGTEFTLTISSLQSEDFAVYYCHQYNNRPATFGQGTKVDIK
B5: ADI-41576 (antibody, V domains shown)
VH: QVTLKESGPTLVKPTQTLTLSCSFSGFSLSAYAVGVGWIRQPPGKALEWLALIYWDDDKRYSPSLETRLTITKDTSKNQVVLTMTKMDPVDTATYYCVYSYNGYYEYMDVWGNGTTVTVSS
VL: DIVMTQSPATLSLSPGERATLSCRASQSVSNYLAWYQQKPGQAPRLLISGASNRATGIPDRFSGSGSGTDFTLTITTPEPEDFAVYYCQQRNAWPRTFGQGTKVEIK
notes: also called Ab 851; Antibody Number 851
B6: ADI-41610 (antibody, V domains shown)
VH: EVQLLESGGGVVQPGRSLRLSCAASELSFRNYGMHWVRQAPGKGLEWVAVISYDGNDKYYADSVKGRFTISRDNSKKTLYLQMDSLRAEDTAVYYCAKEGAYCGGDCFSSWGQGTLVTVSS
VL: GIQLTQSPSSLSASVGDRVTITCRASQSSSSYLNWYQQKPGKAPKLLIYAASSLQSGVPSRFSGSGSGTDFTLTISSLQPEDFATYYCQQSYSFGGGTKVEIK
notes: also called Ab 884; Antibody Number 884
B7: ADI-41582 (antibody, V domains shown)
VH: EVQLVESGPGLVKPSQTLSLTCTVSGGPISSGVYYWSWIRQHPGKGLESIGYIYYSGSTHYNPSLKTRVTISLDTSKNQFSLKLSSVTAADTAVYYCARGCSGGSCYLYAFDIWGQGTTVTVSS
VL: QPVLTQPPSVSVAPGQTARITCGGNNIGTKSVHWYQQKPGQAPLLVVYDDSDRPSGIPERFSGSNSGNTATLTISRVEAGDEADFYCQVWDYATDHVVFGGGTKLTVL
notes: also called Ab 856; Antibody Number 856
B8: ADI-41574 (antibody, V domains shown)
VH: QITLKESGPTLVKPTQTLTLTCTFSGFSLSTSGVGVAWIRQPPGKALEWLALIYWDDDKRYSPSLKSRLTITKDTSKNQVVLTMTNMDPVDTATYYCAHSSVYTTPFDYWGQGSLVTVSS
VL: DIQLTQSPSTLSASVGDRVTITCRASQSISDWLAWYQQKPGKAPKLLIYKAFTLESGVPSRFSGSGSGTEFTLTISSLQPDDFATYYCQQYTSYWTFGQGTKVEIK
notes: also called Ab 850; Antibody Number 850
B9: ADI-41690 (antibody, V domains shown)
VH: QVQLVQSGAEVKKPGESLRISCKGSGYSFSSHWIGWVRQKPGKGLEWMGIIYPGDSDTRYSPSFQGHVTISADKSISTAYLRWSSLKASDTAIYYCAKRMVGDYYGMNLWGQGTTVTVSS
VL: EIVMTQSPSSLSASVGDRVTITCQASQDISNRLNWYQQKPGKAPKLLIYDASNLETGVPSRFSGSGSGTDFTFTISSLQPEDIATYFCQQYDYLLWFTFGPGTKVDIK
notes: also called Ab 893; Antibody Number 893
B10: ADI-20964 (antibody, V domains shown)
VH: QVQLVQSGAEVKKPGASVKVSCKASGYTFTHYGISWVRQAPGQGLEWMGWISAYNGNTNYAQKLQGRVTMTTDTSTSTAYMEVRSLRYDDTAVYYCARDVPVEAATSPEFWGQGTLVTVSS
VL: DIVMTQTPLSLPVTLGQPASISCRSSQSLVYSDGNTYLSWFQQRPGQSPRRLIYKVSNRDSGVPNRFSGSGSGTDFTLKISRVEAEDVGVYYCVQNTHWPAYTFGQGTKVEIK
B11: ADI-14334 (antibody, V domains shown)
VH: EVQLVESGGGLVKPGGSLRLSCAASGVTVSSYYMTWVRQAPGKGLEFISDISSSSTYTNYADSVKGRFTISRDNAKSSLYLQMNNLRAEDTAVYYCARLGITVTGVGYFDLWGRGTLVTVSS
VL: QPGLTQPPSVSGAPGQRVTISCTGSSSNIGAGYDVHWYQQLPGTAPKLLIHDNNNRPSGVPDRFSGSKSGTSASLAITGLQVEDEADYYCQSYDSSLSNYVFGTGTKLTVL
B12: ADI-20998 (antibody, V domains shown)
VH: QVQLVQSGGGVVQPGRSLRLSCAASGFTLSTYGMHWVRQAPGKGLEWVAVIYYDESNKFYADSVQGRFTISRDDSKNTLFLQMNSLRAEDTAVYYCARESRPRGYSYSDFDSWGQGTLVTVSS
VL: QPGLTQPRSVSGSPGQSVTISCTGTSSDVGTFNYVSWYQQHPGKAPKLMIYDVNQRPSGVPDRFSGSKSGNTASLTISGLQAEDEADYYCCAYAGYYSFGGGTKLTVL
B13: ADI-14583 (antibody, V domains shown)
VH: QVQLVQSGAEVKEPGASVKVSCKASGYTFTNYGISWVRQAPGQGLEWLGWISAYNGNIHYAQKVQGRVTMTTDTSTSTGFMELRSLRSDDTAVYYCAREPPVIAAGDFQHWGQGTLVTVSS
VL: ETTLTQSPLSLPVTLGQPASISCRSSQSLVHSNGNTYLSWFQQRPGQSPRRLIYRVSNRDSGVPDRFSGSGSGTDFTLKISRVEAEDVGLYYCMQGTHWPPDFGQGTRLEIK

The binders below were run against RSV prefusion F (preF), DS-Cav1 (Respiratory syncytial virus, UniProt P03420 26-513) (assay: BLI, IgG on anti-human IgG sensor).
B1: no binding (tested: 100 nM antigen). B2: no binding (tested: 100 nM antigen). B3: no binding (tested: 100 nM antigen). B4: no binding (tested: 100 nM antigen). B5: no binding (tested: 100 nM antigen). B6: no binding (tested: 100 nM antigen). B7: no binding (tested: 100 nM antigen). B8: no binding (tested: 100 nM antigen). B9: no binding (tested: 100 nM antigen).

Each binder was assayed against RSV postfusion F (postF), F ΔFP (Respiratory syncytial virus, UniProt P03420 26-513) (assay: BLI, IgG on anti-human IgG sensor, 100 nM antigen).
Binder B1 has a Kd of 2 nM. Work on B2 yielded a Kd of 0.676 nM. Binder B3 has a Kd of 0.804 nM. For B4, the Kd was 2.28 nM. For B5, the Kd was 1.43 nM. With B6 the Kd was 0.978 nM. With B7 the Kd was 0.911 nM. Binder B8 has a Kd of 123 nM. In the case of B9, the Kd is reported as 8.78 nM.

The binders below were run against RSV prefusion F (preF), DS-Cav1 stabilized trimer, subtype A (Respiratory Syncytial Virus, subtype A, UniProt P03420 26-513) (assay: BLI, apparent IgG KD (Table 9A)).
Work on B10 yielded a Kd of 0.36 nM.

The binders below were run against RSV F on RSV subtype B virus (mKate-RSV B 18537) (Respiratory Syncytial Virus, subtype B, …, UniProt P13843 26-574) (assay: cell-based or functional assay).
In the case of B10, the “neut IC50 (ug/ml) subtype B (graham)” value is reported as 0.14 µg/mL. In the case of B11, the “neut IC50 (ug/ml) subtype B (graham)” value is reported as 0.11 µg/mL. With B12 the “neut IC50 (ug/ml) subtype B (graham)” value was > 25 µg/mL. For B13, the “neut IC50 (ug/ml) subtype B (graham)” value was 0.06 µg/mL.

What follows are binders tested against RSV F on RSV subtype A virus (RSV-A2) (Respiratory Syncytial Virus, subtype A, …, UniProt P03420 26-574) (assay: cell-based or functional assay).
With B10 the “Neutralization - RSV A2 IC50 (pM)” value was 162 pM and the “neut IC50 (ug/ml) subtype A (graham)” value was 0.06 µg/mL. For B11, the “Neutralization - RSV A2 IC50 (pM)” value was 189 pM and the “neut IC50 (ug/ml) subtype A (graham)” value was 0.05 µg/mL. For B12, the “Neutralization - RSV A2 IC50 (pM)” value was 74 pM and the “neut IC50 (ug/ml) subtype A (graham)” value was 0.03 µg/mL. With B13 the “Neutralization - RSV A2 IC50 (pM)” value was 125 pM and the “neut IC50 (ug/ml) subtype A (graham)” value was 0.05 µg/mL.

These binders were tested against RSV postfusion F (postF), F ΔFP trimer, subtype A (Respiratory Syncytial Virus, subtype A, UniProt P03420 26-513) (assay: BLI, IgG (Table 9A)).
B10: no binding.

These binders were tested against RSV F on RSV-A2 virus (Respiratory syncytial virus, RSV-A2, UniProt P03420 26-574) (assay: cell-based or functional assay).
For B1, the “Neutralization IC50 (RSV subtype A)” value was > 25 µg/mL. For B2, the “Neutralization IC50 (RSV subtype A)” value was > 25 µg/mL. With B3 the “Neutralization IC50 (RSV subtype A)” value was > 25 µg/mL. B4 was tested, and the “Neutralization IC50 (RSV subtype A)” value was > 25 µg/mL. With B5 the “Neutralization IC50 (RSV subtype A)” value was > 25 µg/mL. With B6 the “Neutralization IC50 (RSV subtype A)” value was > 25 µg/mL. For B7, the “Neutralization IC50 (RSV subtype A)” value was > 25 µg/mL. In the case of B8, the “Neutralization IC50 (RSV subtype A)” value is reported as > 25 µg/mL. In the case of B9, the “Neutralization IC50 (RSV subtype A)” value is reported as > 25 µg/mL.
